Laboratory results: US20240035012A1
Where two headings read alike, the source gives them in different places.

What was measured:
[1] = molecular target: prefusion stabilized trimeric SARS-CoV-2 spike protein ectodomain (SARS-CoV-2) (UniProt P0DTC2)
[2] = molecular target: prefusion stabilized trimeric SARS-CoV-2 spike protein ectodomain (SARS-CoV-2) (UniProt P0DTC2); remark: listed apart in the source
[3] = molecular target: prefusion stabilized trimeric SARS-CoV-2 spike protein ectodomain (SARS-CoV-2) (UniProt P0DTC2); remark: listed apart in the source
[4] = molecular target: prefusion stabilized trimeric SARS-CoV-2 spike protein ectodomain (SARS-CoV-2) (UniProt P0DTC2); assay: ELISA, S-ECD coated on plate, ACE2 protein titrated, anti-GFP detection
[5] = molecular target: prefusion stabilized trimeric SARS-CoV-2 spike protein ectodomain (SARS-CoV-2) (UniProt P0DTC2); remark: listed apart in the source

Substance | Kd [1] [nM] | Kd [2] [nM] | IC50 [3] [nM] | IC50 [4] [nM] | IC50 [5] [nM]
ACE2-flexible-3HB (from UniProt Q9BYF1 18-615) (receptor) | 4.4 | 1.31 | 0.06 |  | 
ACE2-flexible-foldon (from UniProt Q9BYF1 18-615) (receptor) | 0.34 | 0.52 | 0.07 |  | 
ACE2-rigid-3HB (from UniProt Q9BYF1 18-615) (receptor) |  | < 0.001 |  | 0.03 | 
ACE2-rigid-foldon (from UniProt Q9BYF1 18-615) (receptor) |  | < 0.001 |  | 0.03 | 
ACE2-short-foldon (from UniProt Q9BYF1 18-615) (receptor) |  | 0.53 |  |  | 0.05
Monomeric ACE2 (ACE2 (18-615)-(GGGGS)5-HRV3C-eGFP-His8) (from UniProt Q9BYF1 18-615) (receptor) | 34 |  | 26.6 | 27 | 
